This note sets out measurements from publication PMC7980224.

Test in all cases: EMSA
What all share (conditions): apparent Kd; RNA of Fig S1f not named, assumed U1; EMSA: 10 nM labeled RNA, 2-fold protein dilutions up to 10 uM, 2 h on ice, 1% TBE-agarose, 50 V, 4 C; binding buffer not stated (protein elution buffer 150 mM …)
In general terms: Mobility shift assays separate free from complexed probe on a gel.

In data set [1] the test system is INTS10;INTS13;INTS14 (human?;human?;human?).
The subject of data set [2] is INTS4;INTS9;INTS11 (human?;human?;human?).
A further data set deals with INTS5;INTS8.

Take U1 pre-snRNA stem-loop 4 with 3' box: the results for the Kd (in data set [1]; in data set [2]; with INTS5;INTS8) were 780 nM, 820 nM and 3100 nM, respectively.
